Data: patent US20220098319A1 (SHANGHAI PHARMAEXPLORER, published 2022)
Positions count from the first letter of the chain named.

B1: mab030xhIgG1TM (clone 42A5A7), mouse-human chimeric anti-CD73 antibody (antibody, V domains shown)
VH: DIQLQESGPGLVKPSQSLSLTCSVTGYSITSRYYWNWIRQFPGNKLEWMGYITYDDNNNYNPSLKNRISITRDTSKNQFFLKLNSVTPEDTATYYCARGGWDPFLYWGQGTLVTVSA
VL: DIQMTQSPASLSASVGETVTITCRASDNIYSYLAWYQQKQGKSLQLLVDSAKNLGEGVPSRFSGSGSGTQFYLKINSLQPEDFGVYYCQHYYGTPFTFGGGTKLELK
notes: also called mAb030 chimeric antibody
B2: Hu030-2, humanized anti-CD73 antibody (Hu030VH g1 / Hu030VL g0) (antibody, V domains shown)
VH: QVQLQESGPGLVKPSETLSLTCTVSGYSITSRYYWNWIRQPPGKGLEWIGYITYDDNNNYNPSLKNRVTISRDTSKNQFSLKLSSVTAADTAVYYCARGGWDPFLYWGQGTLVTVSS
VL: DIQMTQSPSSLSASVGDRVTITCRASDNIYSYLAWYQQKPGKAPKLLIYSAKNLGEGVPSRFSGSGSGTDFTLTISSLQPEDFATYYCQHYYGTPFTFGGGTKVEIK
notes: also called antibody 11

Key:
[1] = molecular target: T1, human CD73 (full length, on transfected CHOK1 cells) (human, UniProt P21589 27-549); test: cell-based or functional assay
T1 sequence (looked up): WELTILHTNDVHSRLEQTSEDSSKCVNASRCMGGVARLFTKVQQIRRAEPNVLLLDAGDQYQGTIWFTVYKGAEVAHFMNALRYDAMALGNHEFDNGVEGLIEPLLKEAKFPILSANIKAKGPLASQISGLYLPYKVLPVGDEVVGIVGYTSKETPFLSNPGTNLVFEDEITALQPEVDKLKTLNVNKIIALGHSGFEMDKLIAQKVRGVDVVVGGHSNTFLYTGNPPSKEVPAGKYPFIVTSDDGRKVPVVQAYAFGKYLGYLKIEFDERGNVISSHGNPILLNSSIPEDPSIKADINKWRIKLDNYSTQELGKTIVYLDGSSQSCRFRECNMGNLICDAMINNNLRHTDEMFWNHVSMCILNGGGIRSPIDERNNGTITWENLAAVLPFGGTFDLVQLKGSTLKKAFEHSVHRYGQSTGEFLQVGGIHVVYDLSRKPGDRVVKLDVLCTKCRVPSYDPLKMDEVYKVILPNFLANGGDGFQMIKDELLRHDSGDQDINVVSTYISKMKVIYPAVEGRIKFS

[2] = molecular target: T2, His-tagged CD73 extracellular domain protein (hCD73 ECD-His) (human, UniProt P21589 27-547); test: affinity to hCD73 ECD-His (headed SPR; Octet assumed as in 5.5)
T2 construct: Expressed in CHO cells from pTT5-hCD73 ECD-His6, purified on nickel column; also called hCD73 ECD-His6; human CD73 ECD
T2 sequence: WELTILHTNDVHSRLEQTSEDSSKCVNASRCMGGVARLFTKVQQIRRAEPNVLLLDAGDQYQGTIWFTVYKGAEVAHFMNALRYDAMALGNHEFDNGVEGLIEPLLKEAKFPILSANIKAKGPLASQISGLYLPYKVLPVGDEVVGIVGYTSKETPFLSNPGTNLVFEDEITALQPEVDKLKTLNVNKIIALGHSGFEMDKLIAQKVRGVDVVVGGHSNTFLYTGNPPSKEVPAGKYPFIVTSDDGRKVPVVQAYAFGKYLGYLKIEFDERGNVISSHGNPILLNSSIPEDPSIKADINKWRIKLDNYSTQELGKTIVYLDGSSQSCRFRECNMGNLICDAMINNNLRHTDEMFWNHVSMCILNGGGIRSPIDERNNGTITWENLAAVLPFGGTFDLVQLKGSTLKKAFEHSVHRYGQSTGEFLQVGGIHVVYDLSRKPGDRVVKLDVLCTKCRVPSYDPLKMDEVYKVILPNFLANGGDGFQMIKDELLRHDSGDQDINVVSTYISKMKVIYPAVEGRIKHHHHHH

[3] = molecular target: T3, cynomolgus monkey CD73 (on transfected CHOK1 cells) (cynomolgus monkey, UniProt A0A2K5V5U7 27-549); test: FACS on CHOK1-cCD73 cells
T3 construct: whole, on cells; also called CHOK1-cCD73; CHOK1-CCD73
T3 sequence: T1 sequence (looked up) with M199T, T350A, V466I

[4] = molecular target: T1, human CD73 (full length, on transfected …); test: FACS on CHOK1-hCD73 cells
[5] = molecular target: T4, murine CD73 (on transfected CHOK1 cells) (mouse, UniProt Q61503 29-551); test: FACS on CHOK1-mCD73 cells
T4 construct: whole, on cells; also called CHOK1-mCD73; mCD73
T4 sequence (looked up): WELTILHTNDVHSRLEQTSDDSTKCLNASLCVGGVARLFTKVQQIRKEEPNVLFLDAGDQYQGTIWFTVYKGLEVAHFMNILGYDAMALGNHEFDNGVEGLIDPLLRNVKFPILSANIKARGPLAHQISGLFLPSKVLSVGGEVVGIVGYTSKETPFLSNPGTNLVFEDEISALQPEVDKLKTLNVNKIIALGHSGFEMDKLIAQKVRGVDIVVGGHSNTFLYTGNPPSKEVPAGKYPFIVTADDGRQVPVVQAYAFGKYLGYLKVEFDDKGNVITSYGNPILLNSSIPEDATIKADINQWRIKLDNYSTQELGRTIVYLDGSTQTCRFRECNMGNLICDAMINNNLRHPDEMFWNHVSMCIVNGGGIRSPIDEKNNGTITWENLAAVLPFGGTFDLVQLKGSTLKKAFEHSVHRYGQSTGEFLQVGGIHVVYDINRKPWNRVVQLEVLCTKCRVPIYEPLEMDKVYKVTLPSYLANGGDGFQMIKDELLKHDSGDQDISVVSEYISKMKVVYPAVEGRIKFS

[6] = molecular target: T2, His-tagged CD73 extracellular domain …; test: Octet BLI, antibody on AHC sensor, antigen 50-200 nM, 1:1 fit
From the text: Octet Red 96 was selected as the test instrument, and AHC biosensor was selected as the test sensor in this experiment. Anti-human IgG Fc antibody has been immobilized on the AHC sensor, which can be used to directly capture the 15 antibodies in this experiment. Then the sensor was immersed in the analysis sample (antigen). There were five steps in this experiment: 1, Baseline (120 s) 2, Loading (capture antibody) (300 s) 3, Baseline (120 s) 4, Association (binding antigen) (180 s) 5, Dissociation (antigen dissociation) (1200 s). After the test was completed, the regeneration buffer (Glycine PH1.5) and the neutralization buffer (1*PBS buffer) were alternately immersed for 5 seconds, and the sensor was regenerated by a total of five cycles. The maximum number of sensor regeneration times is 10. The running buffer in this experiment is the sample diluent (1*PBS buffer containing 0.02% Tween20 and 0.1% BSA), that is, the buffer used in the Baseline step, the Dissociation step, and the blank analyte sample. Four sensors are used at one running in this experiment.
Sample treatment: all the antibodies were diluted to the working concentration of 10 ug/ml with sample diluent (1*PBS buffer containing 0.02% Tween20 and 0.1% BSA), and the analyte samples (antigens) were diluted to three working concentrations: 200 nM, 100 nM and 50 nM.
For data analysis, Octet Data Analysis (version 7.0) was used to calculate the response signal value (the signal of the coupled analyte sample minus the signal of the blank analyte sample), and a 1:1 binding model was used to fit the data.

| Binder | Inhibition assay of enzyme activity, IC50 [1] [nM] | Inhibition assay of enzyme activity, MAX % inhibition [1] [%] | Kd [2] [nM] | koff [2] [s⁻¹] | kon [2] [M⁻¹ s⁻¹] | EC50 [3] [nM] | MAX MFI fold [3] [fold] | EC50 [4] [nM] | MAX MFI fold [4] [fold] | binding result [5] | Kd [6] [nM] | koff [6] [s⁻¹] | kon [6] [M⁻¹ s⁻¹] |
| --- | --- | --- | --- | --- | --- | --- | --- | --- | --- | --- | --- | --- | --- |
| B1 | 0.1 | 67.4 | 0.0316 | 2.27e-05 | 719000 | 0.8 | 138 | 1.5 | 114 | no binding | 0.0385 | 1.16e-05 | 302000 |
| B2 |  |  | 0.0208 | 1.55e-05 | 746000 |  |  |  |  |  |  |  |  |
